According to the DeepSol protein solubility set:

test: soluble on expression in E. coli; label from the status in PepcDB or PDB records

Q: For “MPTSLKDTVKLHNGVEMPWFGLGVFKVENGNEATESVKAAIKNGYRSIDTAAIYKNEEGVGIGIKESGVAREELFITSKVWNEDQGYETTLAAFEKSLERLQLDYLDLYLIHWPGKDKYKDTWRALEKLYKDGKIRAIGVSNFQVHHLEELLKDAEIKPMVNQVEFHPRLTQKELRDYCKGQGIQLEAWSPLMQGQLLDNEVLTQIAEKHNKSVAQVILRWDLQHGVVTIPKSIKEHRIIENADIFDFELSQEDMDKIDALNKDERVGPNPDELLF”, which “soluble on expression in E. coli” value is on record?
A: soluble

Q: Which “soluble on expression in E. coli” value does the source give for “MPVAHVALPVPLPRTFDYLLPEGMAVKAGCRVRVPFGKQQERIGVVVSVSDVSELPLNELKAVVEVLDSEPVFTHSVWRLLLWAADYYHHPIGDVLFHALPILLRQGRPAANAPMWYWFATEQGHAVDLNSLKRSPKQQQALAALRQGKIWRDQVATLEFNDAALQALRKKGLCDLASETPEFSDWRTNYAVSGERLRLNTEQATAVGAIHSAADTFSAWLLAGVTGSGKTEVYLSVLENVLAQGKQALVMVPEIGLTPQTIARFRERFNAPVEVLHSGLNDSERLSAWLKAKNGEAAIVIGTRSALFTPFKNLGVIVIDEEHDSSYKQQEGWRYHARDLAVYRAHSEQIPIILGSATPALETLCNVQQKKYRLLRLTRRAGNARPAIQHVLDLKGQKVQAGLAPALITRMRQHLQADNQVILFLNRRGFAPALLCHDCGWIAECPRCDHYYTLHQAQQHLRCHHCDSQRPVPRQCPSCGSTHLVPVGLGTEQLEQTLAPLFPGVPISRIDRDTTSRKGALEQQLAEVHRGGARILIGTQMLAKGHHFPDVTLVALLDVDGALFSADFRSAERFAQLYTQVAGRAGRAGKQGEVVLQTHHPEHPLLQTLLYKGYDAFAEQALAERRMMQLPPWTSHVIVRAEDHNNQHAPLFLQQLRNLILSSPLADDKLWVLGPVPALAPKRGGRWRWQILLQHPSRVRLQHIINGTLALINTIPDSRKVKWVLDVDPIEG” here?
A: not soluble

Q: Which “soluble on expression in E. coli” value does the source give for “MPVLSKLARKMYSRLKSSLLNHFQKGANSSSNPSYNGLTKEEKKRLRHSLAECQLNDVYDPDSAHSSYQHSVSFVTTKPSSRHHQQTIDTSGHAPLAPQEVYLDETSSNSASTFYSDLLASSFSSAGGNSSFTCDYEDTNETSFIMSSGLPALSWNVQYIGSFPISGSYVDNLGRRIDSFQPTTSGGMQSVELSISVLGVKICCEKTVLMSHSLRRVTDISARPDTQNIGYVATEPVGRTYRRLCHVFHCQSLKEVSLKIHSVNVKLPGKSENRKSSTGVWALFAPIADHHIVTPVALFRLNLYNFKIGKNLQNNFEMWAIKIFKMFMGRNIFDQQDPEITIFKVSNSPAEEIENVLRNANQSQVLAAKQPKSAVSTSSMHPTNTASTMTEKRSASTVFLNRFLGKKGSQTVDESGQCKRKRRPVSAVFSSAIHRLSSSTSSVNPKRMSTIEPQAPTREQLLQLQNQMRCAASSPVPEEPRPTDLCAASTTTSTSSVASSSSSNGSSSSTDTSPVPPAPQTALVYDEKLGEWIYPIDQALMTQLDNCSYFVGQPTKDSMVYNLNTQPEGAFVIRYSESKSKCLALSMRVPCSHNPSGISHYLIIRNEQGFRLKLSATKKPFPTLQMMLTHHSVLESHLPCTLHFVQWQKTNFKQLAAMSTVERPLRTFNRHSTALTKIDENRNVTATSTPYRPSGRCGGGIDDFTTPKNRRTRNEINAMRRSHFFDDRQIVL” here?
A: not soluble

Q: For “MPVLVFGAVNVHDGDTVAVVHQEESANATAFLDFLRLLKERHPNRMIALVLDNARIHHARMVKDFLREEGQCFHFLYLPPYSPQLNPIERLWKWLKDTVITNAFHKDRHEILQAVQRLIHYIPKRPEDVLRRLECAV”, which “soluble on expression in E. coli” value is on record?
A: not soluble

Q: With “MPVMDRAAMRTMATLQPSCMRWLCTTPSILDAAKAGWPISWAATPDSPATVTIRQFQASTCCRKKTFDVVVNTDVLEHVPEAELDCVLRDFRKLSTNAIIIPHLAKATRILPNGENAHCTIKTPSEWAQVFKRHYAHVYELPHHSAVHALFLCGDQERDVTALRGILEQYVAAKNEVRHHLLPLGKRIEKAIRLIRGKDINRLEHHHHHH” as the sequence, how does the “soluble on expression in E. coli” value read?
A: soluble

Q: With “MPVRYSGFDYDGCVGVTNLINIVAQNPKLAQRIRETSNYYTKEVALIASNRQSDRDDKRNARSNGNGSCFIQIQKLCTDLGMEFDPFLLADAYNLVPAGTSLHEATNPANGAKIQNGWLHDKSKASLVYAHMQRASSLEAREQIDYFFYDDREDILEGLYQFFSANPELIPSNVTMHLVKYACSRENVHTMDNYKIPVQGKGFTNPDYVKTIKAFGDKAIENARDVYDIDGKEINAAGVRQAKYNCNFEFEANKLQPMKFVNNFNSPAELIKAHEQAIEKIKLGAFELYKAKINVITTLSNEQKVFLIRAKAQQWNLLCDEGQWNNPIFTLQAIMAEKSDRFFLPQYAFTAKMLIKNYQEARENSKDGSRFWEQINAFIKSMNALKDPMRNAQSIFEVFKKNSYSVKAVDGFVKKVVEVMNALMDKYPQRSTTEMVACMRILESNLQKMVNFFSLVDRLITIYRGCTTAGLNFNKILTVVREALEEMKMITDSGDNYSTTLIDLDKVITAANNRLESLTYPKEYSTKNFHSQESYKVVGAYLCMQSQLIQKLDTKASTALAI” as the sequence, how does the “soluble on expression in E. coli” value read?
A: not soluble

Q: For “MPWGWIEALLGHACPGCGGPLDLPALCGRCRAGLEAFSTGEMVYLGHYARVGPLVRALKYGRREALARALAEPLARAVAARGWRLQGVTAVPTLPHRLALRGYNPPEVLARALAKALGVPYRPVLFRRRYTPGQPTRGFKERRFLPGDLFGARVRVEGAWLLVDDVLTSGATFLRARGALLEAGAAHVYGAFLAVRDPRALGPYR”, which “soluble on expression in E. coli” value is on record?
A: soluble

Q: With “MPYIALEDGFLRSFGTGRHFPPLSLVVDRLGIYYDATRESELECLLASSRTLLDGIEDAVPEAMELVRERRLSKYNHGGFLATGVPADGRRRVLVVDQTEGDMSVTLGCAEAATFEAMLAAARAENPGALICVKTHPEVAAGDKSGYLSRVTDDADTLALRHDMNPLALLEQMDRVYVVSSQMGFEALMLDKPVICFGMPWYAGWGVTDDRQRCERRGRARSVEELFAGAYFHYTRYLDPVLH” as the sequence, how does the “soluble on expression in E. coli” value read?
A: not soluble

Q: For “MPYLIIEHLEKISEWLLLEYRHTAQWWGDKLIFTNVKEPEERKILAEIGSVVAESVTKLPFDKSKLIILDPFAEEELKPEDIEEDSLIVVGGILGDFEFTGKTKEFITSKIEGAKARHIGSVQFSIDGASIIAKLISEGKRLEEIEYVESPTIKLDEFSEITLHYAVPKVNGKLLLTPGLIELQKKELGYMEEDVEDEELEKLFGGSLEHHHHHH”, which “soluble on expression in E. coli” value is on record?
A: soluble

Q: For “MQAEKLAYYPFTSEASAYVGNLGISLESLLNSRAYRAARARGIERVKEALEGEIKKSPVSGEAQVLSELLSYPFARMLVACVDDQLFTRRYALAEAKAAYTFLRNENPDFLLEFGDDFGISADSQDSYFSMHFTDYIRFSNSLKDPSWKLTNRQLRAGKIKITKEEFSRLLEEAVRERIEQSFPVPEIPPEVSSFCSPYAAEIKDKFEVQKKKFGSTDFGAVKPELFPPCIAYALANVQGGVNLAHSMRFAMTSFLLNVGMSVDEILNLFNISPDFNAEKTLYQIEHIAGATGNTYKPPACDTMRTYGNCVGKDRLCEKISHPLGYYEKKVFIKNKEGEEAQGKEQGKEKDDGKEKENGKESEVKKKKEKLEHHHHHH”, which “soluble on expression in E. coli” value is on record?
A: soluble

Q: Which “soluble on expression in E. coli” value does the source give for “MQCLQFDSINLIEHILPDVRFWLVPPSRTHHLHEHFHHISWQTEAIPQTESKPDKPWFALPQTSERQKPEHILVIGAGISGAATAHALASHGISVTVLEARKAAQAASGNRQGLLYAKISPHDTEQTELLLAGYGYTKRLLGHILPESETWGGNGIIHLNYSRTEQQRNHELGLQKHHNHLYRSITSAEAEKIAGIPLSVPYDHPSCGLYWQHGVWLNPPAFVRTLLNHPLIGLHEDTPLTDISHDGEKWIASTPNGTFTATHIIYCTGANSPYLPETNLAALPLRQIRGQTGLTPSTPFSEQLRCAVSGESYISPSWHGLHCYGASFIPNSSHTGWNEAEEASNRQALAHLNPALSESLFAANPNPQKHQGHAAIRCDSPDHLPLVGALGDIAAMRQTYTKLALDKNYRIDTPCPYLPNAYVNTAHGTRGLATAPICAAAIAAQILGLPHPFSQRLRHALHPNRTIIRAIVRRKDLTPLEHHHHHH” here?
A: not soluble

Q: Which “soluble on expression in E. coli” value does the source give for “MQDELFETEKIPPKNTKNTKNAPKKSFEEHVHSLERAIDRLNDPNLSLKDGMDLYKTAMQELFLAQKLLENAYLEHEKLQTPDQKA” here?
A: not soluble

Q: Which “soluble on expression in E. coli” value does the source give for “MQEKDCIFCKIVRGEVPAKKVYEDDKVLAFHDINPVAPVHILIIPKKHIMGIQTLEPEDECLVGHMFYVARKIAEDLGIAPDENLNKGYRLVFNVGKDAGQSVFHLHLHLIGGREMSWPPG” here?
A: soluble
